Measured values: article PMC8716364, “A Redox-Sensitive Cysteine Is Required for PIN1At Function” (Frontiers in Plant Science, 2021)

What was measured:
[1] = biological target: Cys69 (UniProt position 69, TRVSDCSSAKR); experiment: chemical modification; settings: 25 °C; sodium citrate or phosphate buffer (concentration not stated); reduced (DTT-treated and desalted), free enzyme, monomer
[2] = biological target: the molecule itself; experiment: non-reducing SDS-PAGE after alkylation with mPEG-maleimide; 20 μM reduced PIN1At with 25- or 100-fold excess H2O2 (500 μM or 2 mM), 30 min, TE buffer; one sample then 10 mM DTT 30 min; free thiols alkylated with 2 kDa mPEG-maleimide, non-reducing 15% SDS-PAGE
[3] = biological target: the molecule itself; experiment: SEC-MALS; 76 μM (300 μg) reduced PIN1At incubated 30 min with 100 μM to 2.5 mM H2O2, 30 mM Tris-HCl pH 8.0, 200 mM NaCl, Superdex200 10/300; disulfide-bridged dimer

Work on “PIN1At (PAR1), peptidyl-prolyl cis-trans isomerase Pin1, single-domain parvulin (Arabidopsis thaliana)” yielded a pKa [1] of 4.9±0.1.

B1: Arabidopsis PIN1At, N-terminal His-tagged recombinant protein (enzyme, Arabidopsis thaliana, UniProt Q9SL42 1-119, looked up)
chain: MASRDQVKASHILIKHQGSRRKASWKDPEGKIILTTTREAAVEQLKSIREDIVSGKANFEEVATRVSDCSSAKRGGDLGSFGRGQMQKPFEEATYALKVGDISDIVDTDSGVHIIKRTA
notes: also called His-tagged PIN1At; not shown: His6, N-terminal, kept
B1: binds [2].

B2: Arabidopsis PIN1At, untagged recombinant protein (enzyme, Arabidopsis thaliana, UniProt Q9SL42 2-119, looked up)
chain: ASRDQVKASHILIKHQGSRRKASWKDPEGKIILTTTREAAVEQLKSIREDIVSGKANFEEVATRVSDCSSAKRGGDLGSFGRGQMQKPFEEATYALKVGDISDIVDTDSGVHIIKRTA
notes: Single cysteine, Cys69; the printed masses (12.3 kDa, 12,882.7 Da; theoretical 13,014.7 Da) fit the untagged protein; also called PAR1; PIN1At/PAR1; source: E. coli BL21 (DE3) with pSBET, pET12a, purified (ammonium sulfate, ACA44 gel filtration, DEAE-Sephacel)
B2 was tested, and the “stoichiometry N” value [3] was 2.
